Data taken from publication PMC5982138, “Disruption of the GDP-mannose synthesis pathway in Streptomyces coelicolor results in antibiotic hyper-susceptible phenotypes” (Microbiology, 2018).

Substrate: O=P(O)(O)O[C@H]1O[C@H](CO)[C@@H](O)[C@H](O)[C@@H]1O
Assay: purified protein
Assay type: biochemical, Streptomyces coelicolor
Settings: GTP as co-substrate; cooperative (Hill fit)

B1: SCO4238 (Streptomyces coelicolor A3(2)) (protein)
chain: MTDPNAASRRPVQAVVLAGGQGSRLRPYTDDRPKPMVEIPGTGTPIIGHQLAWLAEEGVTDVVVSCGHLAEVLQKWLESADLPLSVTTVVETEPLGRGGGLRYAAAHLPHPDRSWYATNGDIWTRFSLRDMADFHAERDAVATLALARPRLPWGAVQTDGFGHITDFIEAPPSTFEINAGVYVFSPEFAAMLPERGDHERTTFPRLAREHRLAGFPIPQGSYWRAIDTAKDLTEAARELAALSGR
Km: 180 ± 30 µM
